How the values were obtained:
[1] = target: T1, Recombinant Human E-cadherin Fc chimera (BioLegend) (human, UniProt P12830 155-707); experiment: phage display panning
T1 construct: also called human Ecad Fc chimeric protein; recombinant human Ecad Fc chimera; Fc part of the bought chimera not given
T1 sequence (looked up): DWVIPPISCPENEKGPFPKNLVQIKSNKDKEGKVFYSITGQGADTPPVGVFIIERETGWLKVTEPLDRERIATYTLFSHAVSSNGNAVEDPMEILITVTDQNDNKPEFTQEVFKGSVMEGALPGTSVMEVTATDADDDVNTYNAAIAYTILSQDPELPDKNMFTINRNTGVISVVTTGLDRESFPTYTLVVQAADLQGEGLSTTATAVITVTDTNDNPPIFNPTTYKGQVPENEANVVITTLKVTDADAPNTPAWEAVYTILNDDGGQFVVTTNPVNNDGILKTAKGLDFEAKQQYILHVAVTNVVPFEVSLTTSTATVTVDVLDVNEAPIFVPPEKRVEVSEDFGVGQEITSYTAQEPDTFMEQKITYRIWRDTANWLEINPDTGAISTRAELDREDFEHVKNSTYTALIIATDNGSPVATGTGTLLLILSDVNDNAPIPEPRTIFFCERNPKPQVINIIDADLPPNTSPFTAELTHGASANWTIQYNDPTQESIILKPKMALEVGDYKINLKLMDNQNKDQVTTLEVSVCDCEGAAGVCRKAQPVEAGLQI
Text: (§1) hmcECAD.6 scFv sequence was generated and optimized for binding to Ecad protein through phage display library selection. A naive human scFv library of approximately 2×10⁹ diversity was used to screen against recombinant Ecad protein (Biomolecular Discovery, Rochester, NY). The hmcECAD.6 scFv clone was identified after two rounds of screening against mouse Ecad followed by another round of panning on human Ecad Fc chimeric protein (both from BioLegend, San Diego, CA). […] Final hmcECAD.6 sequence (SEQ ID NO: 90) was codon optimized for cloning of heavy and light chain into EcCAR plasmid.

[2] = target: T2, mouse Ecad (recombinant protein, BioLegend) (mouse, UniProt P09803 157-709, limits assumed); experiment: phage ELISA; relative affinity estimated against the FLAG antibody signal
T2 construct: Bought recombinant protein; Also used here for the general statements of mouse cross-reactivity; also called mouse E-cadherin
T2 sequence (looked up): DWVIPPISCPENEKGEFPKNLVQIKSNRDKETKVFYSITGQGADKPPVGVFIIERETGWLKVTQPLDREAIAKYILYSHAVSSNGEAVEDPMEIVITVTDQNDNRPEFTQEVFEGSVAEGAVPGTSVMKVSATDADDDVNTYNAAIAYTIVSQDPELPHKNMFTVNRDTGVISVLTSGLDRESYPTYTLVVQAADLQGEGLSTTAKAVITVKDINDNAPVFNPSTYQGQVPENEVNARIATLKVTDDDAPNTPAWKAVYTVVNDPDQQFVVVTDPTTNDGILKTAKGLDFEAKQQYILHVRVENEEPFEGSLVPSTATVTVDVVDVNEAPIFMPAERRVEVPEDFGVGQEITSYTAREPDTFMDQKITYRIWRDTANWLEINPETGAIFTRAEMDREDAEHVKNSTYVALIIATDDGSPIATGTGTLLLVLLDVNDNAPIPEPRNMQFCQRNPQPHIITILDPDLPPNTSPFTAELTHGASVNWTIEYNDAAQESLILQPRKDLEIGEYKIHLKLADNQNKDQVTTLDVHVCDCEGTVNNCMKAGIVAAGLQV
Text: as §1

B1: hmcECAD.6 scFv clone (scFv)
scFv: LPVLTQPPSASGTPGQRVTISCSGSSSNIGSNYVYWYQQLPGTAPKLLIYRNNQRPSGVPDRFSGSKSGTSASLAISGLQSEDEADYYCASWDTSLRAWVFGGGTKLTVLGEGKSSGSGSESKASEVQLVQSGGGLVQPGGSLRLSCAASGFTFSSYSMNWVRQAPGKGLEWVSYISSSSSTIYYVDSVKGRFTISRDNAKNSLYLQMDSLRAEDTAVYYCARGGRVLVGALFDYWGQGTLVTVSS
notes: Human scFv from a naive phage display library; also called anti-hmcECAD.6; anti-Ecad scFv
Question: Does B1 bind [1]?
Answer: binds

Question: What about the Kd [2] of the same binder?
Answer: ~5 nM

— patent publication US20260240994A1 (MAYO FOUNDATION FOR MEDICAL EDUCATION AND RESEARCH, published 2026)
